Laboratory results as given in paper PMC2676315.

Tests used:
Experiment in all cases: other fluorescence titration; quenching of the tryptophan fluorescence of SET/TAF-Iβ polypeptides (0.2 to 4 μM; excitation 295 nm, emission 345 nm) on addition of histone; PBS, 25°C; non-linear regression; three repeats
[1] = target: SET/TAF-Iβ (110–277), GST removed (human) (UniProt Q01105)
[2] = target: SET/TAF-Iβ (76–185), GST removed (human) (UniProt Q01105)
[3] = target: SET/TAF-Iβ (1–277), GST removed (human) (UniProt Q01105)
[4] = target: SET/TAF-Iβ (1–210), GST removed (human) (UniProt Q01105)
[5] = target: SET/TAF-Iβ (76–210), GST removed (human) (UniProt Q01105)

Kd [1]	Kd [2]	Kd [3]	Kd [4]	Kd [5]	Substance
160 nM	100 nM	150 nM	130 nM	140 nM	calf thymus histone H3 (from UniProt P68432 1-136) (natural protein)
–	–	2870 nM	–	–	histone H2B (from UniProt P62808 1-126) (natural protein)
